{
  "source": "IntAct's records for PubMed 19549854",
  "parents": {"B1": {"name": "[PIN+] prion protein RNQ1 (Saccharomyces cerevisiae), P25367 (parent)", "chain": "MDTDKLISEAESHFSQGNHAEAVAKLTSAAQSNPNDEQMSTIESLIQKIAGYVMDNRSGGSDASQDRAAGGGSSFMNTLMADSKGSSQTQLGKLALLATVMTHSSNKGSSNRGFDVGTVMSMLSGSGGGSQSMGASGLAALASQFFKSGNNSQGQGQGQGQGQGQGQGQGQGSFTALASLASSFMNSNNNNQQGQNQSSGGSSFGALASMASSFMHSNNNQNSNNSQQGYNQSYQNGNQNSQGYNNQQYQGGNGGYQQQQGQSGGAFSSLASMAQSYLGGGQTQSNQQQYNQQGQNNQQQYQQQGQNYQHQQQGQQQQQGHSSSFSALASMASSYLGNNSNSNSSYGGQQQANEYGRPQQNGQQQSNEYGRPQYGGNQNSNGQHESFNFSGNFSQQNNNGNQNRY"}},
  "data": [
    {"variants_of": "B1", "conditions": "with mas5_yeast YDJ1, P25491", "values": [
      {"variant": "MDTDKLISEAESHFSQGNHAEAVAKLTSAAQSNPNDEQMSTIESLIQKIAGYVMDNRSGGSDASQDRAAGGGSSFMNTLMADSKGSSQTQLGKLALLATVMTHSSNKGSSNRGFDVGTVMSMLSGSGGGSQSMGASGLAALASQFFKSGNNSQGQGQGQGQGQGQGQGQGQGSFTALASLASSFMNSNNNNQQGQNQSSGGSSFGALASMASSFMHSNNNQNSNNSQQGYNQSYQNGNQNSQGYNNQQYQGGYGGYQQQQGQSGGAFSSLASMAQSYLGGGQTQSNQQQYNQQGQNNQQQYQQQGQNYQHQQQGQQQQQGHSSSFSALASMASSYLGNNSNSNSSYGGQQQANEYGRPQQNGQQQSNEYGRPQYGGNQNSNGQHESFNFSGNFSQQNNNGNQNRY", "note": "[N253Y]", "effect of a mutation on the interaction": "disrupting interaction"},
      {"variant": "MDTDKLISEAESHFSQGNHAEAVAKLTSAAQSNPNDEQMSTIESLIQKIAGYVMDNRSGGSDASQDRAAGGGSSFMNTLMADSKGSSQTQLGKLALLATVMTHSSNKGSSNRGFDVGTVMSMLSGSGGGSQSMGASGLAALASQFFKSGNNSQGQGQGQGQGQGQGQGQGQGSFTALASLASSFMNSNNNNQQGQNQSSGGSSFGALASMASSFMHSNNNQNSNNSQQGYNQSYQNGNQNSQGYNNQQYQGGNGGYYQQQGQSGGAFSSLASMAQSYLGGGQTQSNQQQYNQQGQNNQQQYQQQGQNYQHQQQGQQQQQGHSSSFSALASMASSYLGNNSNSNSSYGGQQQANEYGRPQQNGQQQSNEYGRPQYGGNQNSNGQHESFNFSGNFSQQNNNGNQNRY", "note": "[Q257Y]", "effect of a mutation on the interaction": "disrupting interaction"}
    ]}
  ]
}
